Laboratory results published in US11202837B2, “Biological materials and uses thereof” (Antikor Biopharma Limited, priority 2014, dated 2021).
Values after ≈ are worked out from the molar mass of the structure shown. Read-outs that look alike come from different tables or passages of the source. Where a SMILES comes first, the peptide text is derived from it. [ ]: non-standard residue; d: D form. The star is where a group is joined. Dolaproine = CO[C@@H]([C@@H]1CCCN1)[C@@H](C)C(=O)O; Dil = CC[C@H](C)[C@H](NC)[C@@H](CC(=O)O)OC; NMe2Val = CC(C)[C@@H](C(=O)*)N(C)C; NMeV = CN[C@H](C(=O)O)C(C)C

Tests used:
[1] = system: SKBr3 cells; assay: Cell killing assay (MTS), SKBr3 cells; assay type: cell-based, human
Description: SKBr3, human breast cancer cell line, high HER2 expression levels, up to 1,000,000 receptors per cell [Lazar G A, et al Proc Natl Acad Sci USA. […] When confluency was 70-80%, cells were washed with PBS (2×10 ml) and incubated with trypsin for 5-7 min. Complete media was added and the cells were resuspended by pipetting. The cells were recovered by centrifugation (2 min, 2000 rpm), the supernatant was discarded, and the cells were resuspended in complete DMEM (5 ml). The cells were then counted using a haemocytometer and diluted accordingly. They were plated at 4500 cells/well (200 μl) using attachment factor and incubated overnight at 37° C., 5% CO2 in a humidified atmosphere. U87 is a non-HER2 expressing glioblastoma cell line and was grown in a similar way, plated at 1000 cells/well.
(§1) […] Cell viability was measured using the Promega Aqueous Cell-titre-96™ aqueous one solution cell proliferation kit according to manufacturer's instructions. Briefly, the media was removed and 100 μl of complete phenol red free media, pre-combined with MTS reagent, was added to the cells (20 μl of reagent per 100 μl of media). The plates were read on an ELISA plate reader at 490 nm after a 2 hr incubation in the dark (5% CO2, 37° C.).
(§2) The data (absorption units) were converted to % cell survival by using the untreated controls as the 100% cell survival and the Triton X-100 controls as the 100% cell death. The average absorption value for the latter was subtracted from all the rest of the data in order to get a suitable baseline. The averages were converted to survival and standard error values were obtained for each n value (as a % cell survival). […] Experiments were repeated at least 3 times for each compound tested and a set or an average of the data was plotted and fitted to obtain a dose response curve.
(§3) The cells were recovered by centrifugation (2 min, 2000 rpm), the supernatant was discarded, and the cells were resuspended in complete McCoy's 5A (5 ml). The cells were then counted using a haemocytometer and diluted accordingly. They were plated at 5000 cells/well (200 μl) using attachment factor and incubated overnight at 37° C., 5% CO2 in a humidified atmosphere. U87 is a non-HER2 expressing glioblastoma cell line [Zitron I M et al (2013) BMC Cancer 13:83] and was grown in a similar way, plated at 1000 cells/well (using DMEM media). BT474 is a HER2 expressing breast cancer cell line [Brockhoff G et al (2007) Cell Prolif 40:488-507] and was grown in a similar way, plated at 7500 cells/well (using RPMI media). NCI-N87 is a HER2 expressing gastric cancer cell line [Yamashita-Kashima Y et al (2013) Oncol. Rep 30:1087-93] and was grown in a similar way, plated at 7500 cells/well (using RPMI media).
as §1, with “kit (MTS reagent)” for “kit”
The data (absorption units) were converted to % cell survival by using the untreated controls as the 100% cell survival and the Triton X-100 controls as the 100% cell death. The average absorption value for the latter was subtracted from all the rest of the data in order to get a suitable baseline. The averages were converted to survival and standard error values were obtained for each n value (as a % cell survival).

[2] = system: BT474 cells; assay: Cell killing assay (MTS), BT474 cells; assay type: cell-based, human
Description: as §3
The cells were exposed to the various ADCs diluted in complete media for 96 hours at 37° C., 5% CO2 in a humidified atmosphere. Cell viability was measured using the Promega Aqueous Cell-titre-96™ aqueous one solution cell proliferation kit (MTS reagent) according to manufacturer's instructions. Briefly, the media was removed and 100 μl of complete phenol red free media, pre-combined with MTS reagent, was added to the cells (20 μl of reagent per 100 μl of media). The plates were read on an ELISA plate reader at 490 nm after a 2 hr incubation in the dark (5% CO2, 37° C.).
as §2, with “dose-response” for “dose response”

[3] = target: HER2 (Homo sapiens, UniProt P04626); assay: Biacore SPR binding to immobilised HER2; details: immobilised HER2
Description: The binding affinity against immobilised HER2 target antigen was determined by Biacore SPR compared to the unmodified scFv on a Biacore T200. A standard amine-coupling method was used to prepare all Biacore surfaces (CM5 or CM3), as follows. Flow cells were activated individually by injecting a freshly mixed solution of 0.2M EDC in 0.05 M NHS at 30 μl/min. […] Excess NHS ester was deactivated using a 1 M ethanolamine solution. To measure the kinetics of the antibody and conjugate on the HER2 chip, a […] serial dilution (typically at 5, 2.5, 1.25, 0.6 μg/ml or lower for free antibody and 20, 10, 5, 2.5 μg/ml for the conjugates), was injected for 160 s at 30 μl/min, allowing a 900-s dissociation phase. The dissociation time was extended to 3600 s for the highest concentration. Surfaces were regenerated with 45 s injection of MgCl2 8M.
To evaluate binding ability, manual runs were performed at 30 μl/min with a 60 s injection of the desired compound followed by 60 s waiting time and a 45 s of regeneration at 10 μl/min using MgCl2 8M. All data was analysed using the software, BIAEvaluation.

[4] = SKBr3 Cells (HER2 +++), 4 hours incubation, Table 52
[5] = SKBr3 Cells (HER2 +++), 4 hours incubation, Table 52, read-out: IC50
[6] = SKBr3 Cells (HER2 +++), 96 hours incubation, Table 52
[7] = SKBr3 Cells (HER2 +++), 96 hours incubation, Table 52, read-out: IC50
[8] = SKBr3 Cells (HER2+++), 96 hours, Table 47
[9] = SKBr3 Cells (HER2+++), 96 hours, Table 47, read-out: IC50
[10] = BT474 Cells (HER2++), 96 hours, Table 47
[11] = BT474 Cells (HER2++), 96 hours, Table 47, read-out: IC50
[12] = 96 hours exposure, read-out: IC50 nM SKBr3 Cells (HER2+++)

CC[C@H](C)[C@@H]([C@@H](CC(=O)N1CCC[C@H]1[C@H](OC)[C@@H](C)C(=O)N[C@@H](Cc1ccccc1)C(=O)O)OC)N(C)C(=O)[C@@H](NC(=O)[C@H](C(C)C)N(C)C)C(C)C [Free Auristatin] (NMe2Val-V[Dil][Dolaproine]F-OH) was tested, and the “IC50 μg/ml” value [1, 4] was 0.00181 µg/mL (≈ 2.43 nM), the IC50 [1, 5] was greater than 100 nM and the “IC50 μg/ml” value [1, 6] was 0.00081 µg/mL (≈ 1.09 nM). It also gave an IC50 [1, 7] greater than 10 nM.

CC[C@H](C)[C@@H]([C@@H](CC(=O)N1CCC[C@H]1[C@H](OC)[C@@H](C)C(=O)N[C@@H](Cc1ccccc1)C(=O)O)OC)N(C)C(=O)[C@@H](NC(=O)[C@@H](NC)C(C)C)C(C)C [Free drug MMAF] (H-[NMeV]V[Dil][Dolaproine]F-OH) gave an IC50 ([2]; Homo sapiens, BT-474, 96 h, read-out: IC50 pM) greater than 10000 pM.

B1: scFv (TCT1067)-MMAF-C5 DAR 5.2 (conjugate)
scFv: SGSGGSGQVQLVQSGAEVKKPGESLKISCKGSGYSFTSYWIAWVRQMPGKGLEYMGLIYPGDSDTKYSPSFQGQVTISVDKSVSTAYLQWSSLKPSDSAVYFCARHDVGYCTDRTCAAWPEWLGVWGQGTLVTVSSGGGGSGGGGSGGGGSQSVLTQPPSVSAAPGQKVTISCSGSSSNIGNNYVSWYQQLPGTAPKLLIYGHTNRPAGVPDRFSGSKSGTSASLAISGFRSEDEADYYCASWDYTLSGWVFGGGTKLTVLMASMTGGQQMG
B1 showed an association rate [3] of 1.8e+06 M⁻¹ s⁻¹ and a dissociation rate [3] of 3.4e-05 s⁻¹.

B2: scFv (TCT1067)-Auristatin-F-C5 DAR 11.9 (conjugate)
scFv: B1 scFv
B2 gave an association rate [3] of 21700 M⁻¹ s⁻¹ and a dissociation rate [3] of 1.76e-05 s⁻¹.

B3: scFv (TCT1067)-P5C5 DAR 10.6 (conjugate)
scFv: B1 scFv
B3 was tested, and the “IC50 μg/ml” value ([2]; BT474 Cells (HER2++), 96 hours, Table 48) was 0.5 µg/mL and the IC50 ([2]; BT474 Cells (HER2++), 96 hours, Table 48, read-out: IC50) was 17800 pM.

B4: scFv (TCT1067)-MMAF DAR 8.7 (conjugate)
scFv: B1 scFv
B4 was tested, and the “IC50 μg/ml” value [1, 8] was 0.00091 µg/mL, the IC50 [1, 9] was 0.0325 nM and the “IC50 μg/ml” value [2, 10] was 0.001 µg/mL. The IC50 [2, 11] was 35.7 pM.

B5: scFv (TCT1067)-Auristatin-F-C5 DAR 5.65 (conjugate)
scFv: B1 scFv
B5 showed an association rate [3] of 336000 M⁻¹ s⁻¹ and a dissociation rate [3] of 1.35e-05 s⁻¹.

B6: scFv (TCT1067)-Auristatin-F-C5 DAR 3.3 (conjugate)
scFv: B1 scFv
For B6, the association rate [3] was 556000 M⁻¹ s⁻¹ and the dissociation rate [3] was 1.82e-05 s⁻¹.

B7: ScFv (TCT1067)-AF-C5 DAR 5.3 (conjugate)
scFv: B1 scFv
B7 was tested, and the “IC50 μg/ml” value [1, 4] was 0.00181 µg/mL, the IC50 [1, 5] was 0.0644 nM and the “IC50 μg/ml” value [1, 6] was 0.00081 µg/mL. For the same molecule, the IC50 [1, 7] was 0.0288 nM.

B8: scFv (TCT)-P5C5, DAR = 5 (conjugate)
scFv: SGSGGSGQVQLVQSGAEVKKPGESLKISCKGSGYSFTSYWIAWVRQMPGKGLEYMGLIYPGDSDTKYSPSFQGQVTISVDKSVSTAYLQWSSLKPSDSAVYFCARHDVGYCSSSNCAAWPEYFQHWGQGTLVTVSSGGGGSGGGGSGGGGSQSVLTQPPSVSAAPGQKVTISCSGSSSNIGNNYVSWYQQLPGTAPKLLIYGHTNRPAGVPDRFSGSKSGTSASLAISGFRSEDEADYYCAAWDDSLSGWVFGGGTKLTVLMASMTGGQQMG
B8 was tested, and the “IC50 μg/ml SKBr3 Cells (HER2+++)” value ([1]; 96 hours exposure) was 1.33 ± 0.1 µg/mL and the IC50 [1, 12] was 47.5 ± 0.36 nM.

B9: scFv (TCT)-P5C5, DAR = 8 (conjugate)
scFv: B8 scFv
In the case of B9, the “IC50 μg/ml SKBr3 Cells (HER2+++)” value ([1]; 96 hours exposure) is reported as 0.8 ± 0.1 µg/mL and the IC50 [1, 12] is reported as 28 ± 0.36 nM.

B10: scFv (TCT)-MMAF DAR 8 (conjugate)
scFv: B8 scFv
For B10, the “IC50 μg/ml” value [1, 8] was 0.0053 µg/mL, the IC50 [1, 9] was 0.189 nM and the “IC50 μg/ml” value [2, 10] was 0.02 µg/mL. It also gave an IC50 [2, 11] of 714 pM.
